Consider two substances from article PMC3836765.

Experiment [1] has as its target MDM2 (human (endogenous in SJSA-1)) (UniProt Q00987).
The target in experiment [2] is MDMX (human (endogenous in SJSA-1)) (UniProt O15151).
The target of experiment [3] is MDM2 (human (endogenous in SJSA-1)) (UniProt Q00987). This is another data set of the same source.
Experiment [4] addresses MDMX (human (endogenous in SJSA-1)) (UniProt O15151). This is another data set of the same source.
Experiment [5] addresses MDM2 (human (endogenous in SJSA-1)) (UniProt Q00987). This is another data set of the same source.
Experiment [6] has as its target MDMX (human (endogenous in SJSA-1)) (UniProt O15151). This is another data set of the same source.

MDM2 (human (endogenous in SJSA-1)), sequence (Q00987 whole entry): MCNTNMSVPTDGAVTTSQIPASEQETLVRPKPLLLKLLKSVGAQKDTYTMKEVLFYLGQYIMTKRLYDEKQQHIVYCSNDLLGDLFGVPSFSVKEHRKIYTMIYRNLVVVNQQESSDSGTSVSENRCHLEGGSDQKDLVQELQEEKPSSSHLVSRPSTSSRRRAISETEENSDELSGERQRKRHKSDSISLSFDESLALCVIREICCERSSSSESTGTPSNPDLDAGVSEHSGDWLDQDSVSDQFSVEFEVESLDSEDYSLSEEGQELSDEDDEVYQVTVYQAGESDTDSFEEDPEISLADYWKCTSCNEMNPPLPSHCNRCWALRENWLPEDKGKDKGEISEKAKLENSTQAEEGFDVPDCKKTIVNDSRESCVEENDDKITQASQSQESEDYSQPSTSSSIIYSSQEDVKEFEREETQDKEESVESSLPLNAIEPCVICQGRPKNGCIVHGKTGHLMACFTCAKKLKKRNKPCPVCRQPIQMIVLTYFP
MDMX (human (endogenous in SJSA-1)), sequence (O15151 whole entry): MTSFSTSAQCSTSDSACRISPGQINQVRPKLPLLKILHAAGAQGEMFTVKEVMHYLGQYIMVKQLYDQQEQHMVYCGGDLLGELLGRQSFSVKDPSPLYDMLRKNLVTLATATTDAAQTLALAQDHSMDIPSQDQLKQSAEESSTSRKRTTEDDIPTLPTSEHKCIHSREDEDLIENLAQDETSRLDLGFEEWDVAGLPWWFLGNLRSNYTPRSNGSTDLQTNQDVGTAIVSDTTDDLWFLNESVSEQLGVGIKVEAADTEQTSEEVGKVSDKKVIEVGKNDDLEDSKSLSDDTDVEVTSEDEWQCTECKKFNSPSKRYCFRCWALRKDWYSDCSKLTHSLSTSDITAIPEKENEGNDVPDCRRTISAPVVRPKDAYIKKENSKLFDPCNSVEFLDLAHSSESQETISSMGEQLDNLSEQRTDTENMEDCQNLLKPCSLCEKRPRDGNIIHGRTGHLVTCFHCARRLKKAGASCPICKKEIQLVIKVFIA

“recombinant human serum albumin fused at its C-terminus to the wild type p53-derived peptide P53i (rHSA-P53i), biotinylated (from UniProt P02768 25-608)”: the cytotoxicity in SJSA-1 cells, CyQuant Assay, 24 h, percent cell death relative to 10 uM rHSA-treated cells (concentrations as indicated in Figure 4A) in experiment [1] and in experiment [2] was 60 % cell death in each case. In addition, the caspase activation in SJSA-1 cells, Homogeneous Caspase Assay, 24 h, fold change in experiment [3] and in experiment [4] was under 2 fold in each case. Besides, the p53 protein level in SJSA-1 cells after 24 h with 10 uM protein, Western blot densitometry, fold increase in experiment [5] and in experiment [6] was 1.5 fold throughout.
For “recombinant human serum albumin fused at its C-terminus to the MDM2/MDMX-binding peptide N8A-PMI (rHSA-PMI), biotinylated (from UniProt P02768 25-608)”, the cytotoxicity in SJSA-1 cells, CyQuant Assay, 24 h, percent cell death relative to 10 uM rHSA-treated cells (concentrations as indicated in Figure 4A) in experiment [1] and in experiment [2] was 84 % cell death in each case. Besides, the caspase activation in SJSA-1 cells, Homogeneous Caspase Assay, 24 h, fold change in experiment [3] and in experiment [4] was 7 fold each time. Further, the p53 protein level in SJSA-1 cells after 24 h with 10 uM protein, Western blot densitometry, fold increase in experiment [5] and in experiment [6] was 2.9 fold each time.
